According to IntAct's records for PubMed 21398607:

Biological target: wasp_mouse Was (UniProt P70315)
Sequence (P70315 whole entry): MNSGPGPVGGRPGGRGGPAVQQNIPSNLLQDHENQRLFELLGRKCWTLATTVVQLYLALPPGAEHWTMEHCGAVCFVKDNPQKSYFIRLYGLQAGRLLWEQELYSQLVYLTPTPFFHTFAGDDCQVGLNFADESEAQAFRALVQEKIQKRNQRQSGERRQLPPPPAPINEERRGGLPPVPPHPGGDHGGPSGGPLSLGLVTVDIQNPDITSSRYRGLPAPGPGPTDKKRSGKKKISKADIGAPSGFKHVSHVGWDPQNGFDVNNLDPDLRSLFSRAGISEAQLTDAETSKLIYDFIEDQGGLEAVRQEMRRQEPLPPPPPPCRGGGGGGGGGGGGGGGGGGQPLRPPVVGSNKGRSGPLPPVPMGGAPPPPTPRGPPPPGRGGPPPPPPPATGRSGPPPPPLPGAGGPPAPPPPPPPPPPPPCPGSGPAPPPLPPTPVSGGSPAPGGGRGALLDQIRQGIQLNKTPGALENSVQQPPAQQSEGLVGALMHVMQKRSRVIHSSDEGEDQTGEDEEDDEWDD

WAS/WASL-interacting protein family member 1 (Homo sapiens), O43516 S436A, sequence (O43516 whole entry S436A): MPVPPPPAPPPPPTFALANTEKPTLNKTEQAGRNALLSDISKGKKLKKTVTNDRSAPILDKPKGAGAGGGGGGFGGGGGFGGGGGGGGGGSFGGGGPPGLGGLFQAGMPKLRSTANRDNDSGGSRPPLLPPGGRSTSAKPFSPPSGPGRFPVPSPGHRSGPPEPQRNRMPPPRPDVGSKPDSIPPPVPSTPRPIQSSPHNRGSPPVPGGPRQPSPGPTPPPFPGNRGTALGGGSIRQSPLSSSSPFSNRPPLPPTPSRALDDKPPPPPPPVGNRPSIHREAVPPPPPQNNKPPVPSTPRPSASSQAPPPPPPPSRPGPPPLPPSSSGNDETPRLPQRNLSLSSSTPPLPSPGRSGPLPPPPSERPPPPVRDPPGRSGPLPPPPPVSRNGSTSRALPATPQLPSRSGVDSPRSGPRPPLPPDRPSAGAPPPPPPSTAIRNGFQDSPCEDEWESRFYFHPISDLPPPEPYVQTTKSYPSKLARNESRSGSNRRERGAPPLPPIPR

effect of a mutation on the interaction: disrupting interaction
Substance: WAS/WASL-interacting protein family member 1 (Homo sapiens), O43516 S436A
